# In US20110171285A1, “Design of Fibrinogen and Fibrinogen Derived Products with Reduced Bacterial Binding by Using Modified Sequences of Fibrinogen Chains” (priority 2009, published 2011):
# B1: human 15-mer C-terminal Fg γ-chain peptide (…) (peptide)
# peptide: GQQHHLGGAKQAGDV
# modifications: not checked
# Target: human platelet integrin αIIbβ3 (human), P08514
# Test: competition ELISA: integrin αIIbβ3 coated, 10 nM human Fg added with varying peptide, bound Fg detected with anti-Fg antibodies/HRP
binder,measurement,value
B1,IC50 (read off the curve),10 µM
